Earlier results as cited in publication PMC6082625.
Like-named read-outs stand apart in the source and are kept apart here. Blank lines part the entries; values can stand above or below the substance they belong to.

Legend:
[1] = target: Hsp90 (Homo sapiens) (UniProt P07900)
[2] = target: Hsp90 (Homo sapiens) (UniProt P07900); remark: listed apart in the source
[3] = target: J-domain protein (DnaJ) J domain (Escherichia coli) (UniProt P08622)
J-domain protein (DnaJ) J domain (Escherichia coli), sequence (P08622 1-75): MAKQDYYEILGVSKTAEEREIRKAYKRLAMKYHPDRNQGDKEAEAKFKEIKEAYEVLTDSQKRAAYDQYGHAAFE

p23, sequence (Q15185 whole entry): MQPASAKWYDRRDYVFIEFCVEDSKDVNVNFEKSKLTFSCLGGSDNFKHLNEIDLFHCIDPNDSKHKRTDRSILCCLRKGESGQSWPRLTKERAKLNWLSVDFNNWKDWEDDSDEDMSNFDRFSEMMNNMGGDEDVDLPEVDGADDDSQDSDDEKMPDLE
Aha1, sequence (O95433 whole entry): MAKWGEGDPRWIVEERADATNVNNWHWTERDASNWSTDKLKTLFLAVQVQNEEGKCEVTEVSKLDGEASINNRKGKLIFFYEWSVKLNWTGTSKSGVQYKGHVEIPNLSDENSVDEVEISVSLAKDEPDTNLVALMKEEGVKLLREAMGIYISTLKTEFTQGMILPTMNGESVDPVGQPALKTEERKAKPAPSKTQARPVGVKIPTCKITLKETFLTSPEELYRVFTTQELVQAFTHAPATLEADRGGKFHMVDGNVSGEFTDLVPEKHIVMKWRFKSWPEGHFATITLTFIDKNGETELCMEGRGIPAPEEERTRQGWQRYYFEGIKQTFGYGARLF
Hsp70 (DnaK), sequence (P0A6Y8 2-638): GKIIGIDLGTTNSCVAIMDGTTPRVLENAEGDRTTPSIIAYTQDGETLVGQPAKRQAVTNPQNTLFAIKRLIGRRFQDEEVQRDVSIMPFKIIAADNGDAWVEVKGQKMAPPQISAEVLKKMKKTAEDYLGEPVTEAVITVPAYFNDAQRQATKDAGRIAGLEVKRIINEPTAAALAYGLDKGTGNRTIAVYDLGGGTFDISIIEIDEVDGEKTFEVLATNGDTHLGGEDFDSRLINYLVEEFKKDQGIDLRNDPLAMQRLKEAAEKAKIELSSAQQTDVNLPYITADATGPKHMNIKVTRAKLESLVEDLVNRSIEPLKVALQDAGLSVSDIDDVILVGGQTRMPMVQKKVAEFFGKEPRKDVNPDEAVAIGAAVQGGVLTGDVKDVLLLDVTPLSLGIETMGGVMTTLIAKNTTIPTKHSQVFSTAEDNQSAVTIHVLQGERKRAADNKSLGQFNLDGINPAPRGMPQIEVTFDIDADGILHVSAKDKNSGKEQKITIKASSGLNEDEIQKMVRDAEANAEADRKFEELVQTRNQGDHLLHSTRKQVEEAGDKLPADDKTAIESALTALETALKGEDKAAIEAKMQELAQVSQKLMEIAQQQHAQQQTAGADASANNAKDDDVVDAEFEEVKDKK

Kd [1]: 1000 nM
Substance: p23 (from UniProt Q15185)

Kd [2]: 700 nM
Substance: Aha1 (from UniProt O95433)

Kd [3]: 10 µM
Substance: Hsp70 (DnaK) (from UniProt P0A6Y8)
